In the Immune Epitope Database (IEDB) one finds Kd and IC50 data, which are given here for 22 sequences.

One experiment deals with HLA-A*02:12. In words: IEDB peptide-MHC binding, purified MHC/direct/fluorescence; filed as Kd, often an IC50 or EC50 that approximates it; ≥ and ≤ were set here for values at or beyond the usual limits of such assays. The following applies: source organism: Mycobacterium tuberculosis str. Haarlem.
The target of the next experiment is HLA-A*69:01. The description is as above. Conditions: source organism: Mycobacterium tuberculosis.
The target of experiment [1] is HLA-A*03:01. In words: IEDB peptide-MHC binding, purified MHC/competitive/fluorescence; ≥ and ≤ were set here for values at or beyond the usual limits of such assays.
Experiment [2] deals with HLA-A*11:01. The experiment is described as above.
A further experiment has as its target HLA-A*24:02. The experiment is described as above. Conditions: source organism: Variola virus.
Experiment [3] addresses HLA-A*11:01. Nature of the experiment: IEDB peptide-MHC binding, purified MHC/direct/fluorescence; filed as Kd, often an IC50 or EC50 that approximates it; ≥ and ≤ were set here for values at or beyond the usual limits of such assays.
In another experiment the target is HLA-A*31:01. Nature of the experiment: IEDB peptide-MHC binding, purified MHC/competitive/fluorescence; filed as Kd, often an IC50 or EC50 that approximates it; ≥ and ≤ were set here for values at or beyond the usual limits of such assays.
A further experiment deals with HLA-A*30:01. Nature of the experiment: IEDB peptide-MHC binding, purified MHC/competitive/radioactivity; filed as Kd, often an IC50 or EC50 that approximates it; ≥ and ≤ were set here for values at or beyond the usual limits of such assays. The following applies: source organism: Dengue virus 1 Brazil/97-11/1997.
The target in a further experiment is HLA-A*32:01. The description is as above.
The target of the next experiment is HLA-A*68:01. Described as above. Conditions: source organism: Dengue virus 1 Brazil/97-11/1997.
For experiment [4], the target named is HLA-A*03:01. In words: IEDB peptide-MHC binding, purified MHC/competitive/fluorescence; filed as Kd, often an IC50 or EC50 that approximates it; ≥ and ≤ were set here for values at or beyond the usual limits of such assays.
In experiment [5] the target is HLA-A*03:01. In words: IEDB peptide-MHC binding, purified MHC/direct/fluorescence; filed as Kd, often an IC50 or EC50 that approximates it; ≥ and ≤ were set here for values at or beyond the usual limits of such assays.
For experiment [6], the target named is HLA-B*15:01. In words: IEDB peptide-MHC binding, purified MHC/competitive/radioactivity; filed as Kd, often an IC50 or EC50 that approximates it; ≥ and ≤ were set here for values at or beyond the usual limits of such assays. The following applies: source organism: Vaccinia virus Copenhagen.
The next experiment has as its target HLA-B*15:03. The description is as above.
Another experiment concerns the target HLA-A*02:11. In words: IEDB peptide-MHC binding, purified MHC/direct/fluorescence; filed as Kd, often an IC50 or EC50 that approximates it; ≥ and ≤ were set here for values at or beyond the usual limits of such assays. Conditions: source organism: Mycobacterium tuberculosis str. Haarlem.
The target in another experiment is HLA-B*15:17. The description is as above. The following applies: source organism: Vibrio cholerae.
The next experiment addresses HLA-B*57:01. The description is as above. Conditions: source organism: Vibrio cholerae.
For another experiment, the target named is HLA-B*58:01. The description is as above. Conditions: source organism: Vibrio cholerae.
Experiment [7] deals with HLA-B*15:01. In words: IEDB peptide-MHC binding, purified MHC/competitive/fluorescence; filed as Kd, often an IC50 or EC50 that approximates it; ≥ and ≤ were set here for values at or beyond the usual limits of such assays. Conditions: source organism: Escherichia coli E22.
Setting [8] is: source organism: Zaire ebolavirus.
[9] abbreviates: source organism: Mammarenavirus lassaense.
The mark [10] stands for this setting: source organism: Vaccinia virus Copenhagen.
The mark [11] stands for this setting: source organism: Giardia lamblia ATCC 50803.
The mark [12] stands for this setting: source organism: Vaccinia virus WR.
[13] abbreviates: source organism: Vaccinia virus.
[14] abbreviates: source organism: Escherichia coli E22.

In the case of LLGQNTPAI, the results for the Kd with HLA-A*02:12 and with HLA-A*69:01 were 4 nM and 1.19 µM, respectively.

For LTGGTGVGK, the IC50 was 5.75 µM in the experiment with HLA-A*03:01 [1] (source organism: Variola virus), 998 nM with HLA-A*11:01 [2] (source organism: Variola virus) and 38.8 µM with HLA-A*24:02.

As to KTFDTEYQK, the Kd with HLA-A*11:01 [3] (source organism: Dengue virus 1 Singapore/S275/1990) is 12.5 nM; with HLA-A*31:01 (source organism: dengue virus type 1) it was 128 nM; in the experiment with HLA-A*30:01 it was 388 nM; in the experiment with HLA-A*32:01 (source organism: Dengue virus 1 Brazil/97-11/1997), 7.72 µM; with HLA-A*68:01 it was 4.6 nM.

For ITHPKYRKK, the Kd in the experiment with HLA-A*03:01 [4] (source organism: Vibrio antiquarius) is at least 20000 nM.

For the sequence MVQVHSQGR, the IC50 came out at 61.4 µM with HLA-A*03:01 [1] (setting [8]) and 4760 nM in the experiment with HLA-A*11:01 [2] (setting [8]).

STFTRGAQK: the Kd is 78.4 nM with HLA-A*03:01 [5] (setting [9]), 1.5 nM with HLA-A*11:01 [3] (setting [9]) and 27 nM with HLA-A*31:01 (setting [9]).

Consider VTRFESLK, for which the Kd with HLA-A*03:01 [4] (source organism: Influenza A virus (A/Swine/Minnesota/55551/2000(H1N2))) was at least 20000 nM.

As for IMYPSPNGH, in the experiment with HLA-A*03:01 [4] (source organism: Shigella sonnei Ss046), the equilibrium dissociation constant (Kd) stood at 7.7 nM.

VSFSPSLTF: the Kd with HLA-A*32:01 (setting [10]) turned out to be 0.736 µM; with HLA-B*15:01 [6] it was 1.26 nM; in the experiment with HLA-B*15:03 (setting [10]), 1.22 nM.

LLDEGKQSL: the figures for the Kd with HLA-A*02:11, with HLA-A*02:12 and with HLA-A*69:01 were 4 nM, 4 nM and 7 µM, respectively.

With LMQGSTLPR, the Kd with HLA-A*03:01 [5] (source organism: Influenza A virus (A/South Carolina/1/1918(H1N1))) amounted to 6000 nM; in the experiment with HLA-A*31:01 (source organism: Influenza A virus (A/swine/Italy/1509-6/97(H1N1))), 30.2 nM.

On to TTHSKGATK, for which the Kd with HLA-A*03:01 [5] (setting [11]) was determined as 337 nM; in the experiment with HLA-A*11:01 [3] (setting [11]), 246 nM; with HLA-A*31:01 (setting [11]), 454 nM.

Regarding LVDYGLVSK, the IC50 with HLA-A*03:01 [1] (setting [12]) came out at 12.5 µM; in the experiment with HLA-A*11:01 [2] (setting [12]), 1330 nM.

With ALTKNYLSF, the Kd with HLA-B*15:03 (setting [12]) amounted to 40.1 nM.

In the case of KAYSEAETF, the results for the Kd with HLA-B*15:17, with HLA-B*57:01 and with HLA-B*58:01 were 21.5 nM, 173 nM and 23.8 nM, respectively.

AVNNLVELK: the Kd worked out at 2400 nM in the experiment with HLA-A*03:01 [5] (setting [9]), 11.2 nM with HLA-A*11:01 [3] (setting [9]) and 77.5 nM with HLA-A*31:01 (source organism: Lassa virus Josiah).

For the sequence INNQLLLQK, the concentration for half-maximal inhibition (IC50) was 64.2 µM with HLA-A*03:01 [1] (setting [13]) and 2440 nM with HLA-A*11:01 [2] (setting [13]).

Consider LRTYTILNR, for which, in the experiment with HLA-A*03:01 [1] (source organism: Sudan ebolavirus), the IC50 was at least 286 µM.

Take FKFNSQVSI: the Kd with HLA-B*15:03 (setting [12]) came to 1.24 nM.

Take EMFIIKYFK: the figures for the equilibrium dissociation constant (Kd) with HLA-A*03:01 [4] (setting [14]), in the experiment with HLA-A*31:01 (setting [14]) and in the experiment with HLA-B*15:01 [7] were at least 20000 nM, 394 nM and at least 20 µM, respectively.

In the experiment with HLA-A*03:01 [4] (source organism: Rickettsia sibirica 246), NLQPPALSK yielded a Kd of 430 nM.

Turning to NKFFEVIFF, in the experiment with HLA-B*15:03 (setting [12]), the Kd was found to be 18.8 nM.
